Reference: US20200190209A1

Target: recombinant human CD38 his tagged (extracellular domain) (human) (UniProt P28907)
Test: ForteBio BLI

Kd: 9 nM
Substance: IB4 (reference monoclonal agonistic mouse anti-human CD38 antibody)
